This passage reports activity and activity (fold repression) results from US5763209.

What all share (assay): cell_activity
The subject of data set [1] is GAL4(1-147)-Egr-1(3-281) (Saccharomyces cerevisiae / Mus musculus). Particulars: GAL4-site-dependent activation; text says amino acids 1-281.
Data set [2] deals with GAL4(1-147)-Egr-1(420-533) (Saccharomyces cerevisiae / Mus musculus). Particulars: GAL4-site-dependent activation.
For data set [3], the system named is GAL4(1-147)-Egr-1(240-330) (Saccharomyces cerevisiae / Mus musculus). Particulars: GAL4-site-dependent.
In data set [4] the test system is GAL4(1-147)-Egr-1(281-314) (Saccharomyces cerevisiae / Mus musculus). Particulars: 1 µg effector plasmid.

On to “GAL4 reporter, five GAL4 sites with E1b minimal promoter”, for which the activity amounted to 100 fold in data set [1] and 5 fold in data set [2].

As for GAL4 5 tkCAT reporter plasmid, the results for the activity (fold repression) in data set [3] and in data set [4] were 10 and greater than 5, respectively.
